Target: T1, wild-type Aβ1-40 (Homo sapiens, UniProt P05067)
T1 construct: lipophile probe (4-dodecylaminocarbonylfluorene-9-ylmethylsuccinimidyl carbonate), non-protein purification handle (N); made in house; host or cells: chemical solid phase synthesis (no expression host)
Experiment: Inhibition of amyloidogenesis: hexapeptides co-incubated with wild-type Aβ1-40 (ultrastructural and histochemical study)
Format: biochemical
Conditions: for effect on fibrillogenesis of Aβ1-40: co-incubated with wild-type Aβ1-40, equimolar or in excess (hexapeptide:Aβ1-40=5:1)
Protocol: For the ultrastructural investigation, 5 μl of suspension of wild-type Aβ1-40, mutated Aβ1-40 and their equimolar mixture were drawn at incubation times in the range of 1 hour-20 days, deposited on nickel screen covered with Formvar-Carbon for 5 minutes, negatively coloured with an over-saturated solution of uranyl and observed under electronic microscope (EM109 Zeiss). On the twentieth day of incubation, aliquots of the samples were centrifuged at 15,000 g for 15 minutes. The pellets thus obtained were fixed in 2.5% glutaraldehyde in phosphate buffer, pH 7.4, post-fixed in 1% osmium tetroxide, dehydrated in acetone and included in epoxy rein (Spurr, Electron Microscopy Sciences). Ultrafine sections (500 Å) were collected on copper screens, coloured with uranyl acetate and lead citrate and observed under the electronic microscope.
In order to verify if and in what measure the aggregates were constituted by amyloid, 5 μl of solution of each sample, for the different incubation times, was collected on polylysinated slides (Bio-Optical), coloured with Congo Red and examined with polarised light microscope (Nikon Eclipse E-800).
The two hexapeptides were co-incubated with wild-type Aβ1-40 at equimolar concentration or in excess (hexapeptide:Aβ1-40=5:1). The mixtures were prepared for the ultrastructural and histochemical study as described in example 2.

T1 sequence (P05067 672-711): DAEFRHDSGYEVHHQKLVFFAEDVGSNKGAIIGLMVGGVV

Row | Substance | effect on fibrillogenesis of Aβ1-40 | inhibitory activity on fibrillogenesis relative to wild-type hexapeptide (co-incubated with wild-type Aβ1-40, equimolar or 5:1)
1 | DAEFRH | inhibit the fibrillogenesis of Aβ1-40 | 
2 | DVEFRH [synthetic peptide, first six amino acids of Aβ with valine in place of alanine in position 2] | inhibit the fibrillogenesis of Aβ1-40 | more active than the corresponding wild-type
